Assay [1] addresses human Toll-like Receptor 9 (TLR9) (human) (UniProt Q9NR96). The assay can be described thus: intracellular flow, B cells; PE isotype control, no block.
Assay [2] shares this target. Put plainly: intracellular flow, pDCs; PE isotype control, no block.

UniProt Q9NR96, sequence (Q9NR96 26-1032): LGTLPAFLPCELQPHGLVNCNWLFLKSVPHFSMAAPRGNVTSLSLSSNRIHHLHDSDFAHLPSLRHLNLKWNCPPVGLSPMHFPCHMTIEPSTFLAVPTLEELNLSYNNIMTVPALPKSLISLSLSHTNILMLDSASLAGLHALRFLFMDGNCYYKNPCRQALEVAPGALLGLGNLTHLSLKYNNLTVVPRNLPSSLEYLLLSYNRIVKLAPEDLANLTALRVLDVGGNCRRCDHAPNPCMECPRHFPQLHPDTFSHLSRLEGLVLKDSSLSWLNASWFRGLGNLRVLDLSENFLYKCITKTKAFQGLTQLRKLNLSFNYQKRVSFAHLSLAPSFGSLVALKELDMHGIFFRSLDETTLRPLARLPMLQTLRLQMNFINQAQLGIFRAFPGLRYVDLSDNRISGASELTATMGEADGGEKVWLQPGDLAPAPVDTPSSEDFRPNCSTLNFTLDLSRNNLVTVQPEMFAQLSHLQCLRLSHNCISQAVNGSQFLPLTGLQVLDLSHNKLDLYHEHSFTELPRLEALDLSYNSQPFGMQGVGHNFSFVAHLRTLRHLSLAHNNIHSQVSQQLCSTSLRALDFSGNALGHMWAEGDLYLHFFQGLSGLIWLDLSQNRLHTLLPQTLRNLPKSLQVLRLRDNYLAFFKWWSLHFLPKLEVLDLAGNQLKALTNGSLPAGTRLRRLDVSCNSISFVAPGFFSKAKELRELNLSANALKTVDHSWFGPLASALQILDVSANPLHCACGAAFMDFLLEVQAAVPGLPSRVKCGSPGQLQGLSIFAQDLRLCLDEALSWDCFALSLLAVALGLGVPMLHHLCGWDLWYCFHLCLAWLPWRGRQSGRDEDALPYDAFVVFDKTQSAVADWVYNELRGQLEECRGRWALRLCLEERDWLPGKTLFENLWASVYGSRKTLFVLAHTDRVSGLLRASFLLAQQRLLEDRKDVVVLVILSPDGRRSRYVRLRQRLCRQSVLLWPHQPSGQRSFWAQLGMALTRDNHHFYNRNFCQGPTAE

For the substance Rat IgG2a isotype control (antibody), the MFI in assay [1] was 142; in assay [2], 490.
As for Rat IgG2b isotype control (antibody), the MFI in assay [1] was found to be 52; in assay [2], 138.

The values above are taken from patent publication US20210206873A1.
